Test results as given in patent US20190367631A1 (Regeneron, published 2019).

What was measured:
[1] = biological target: T1, human MSR1 extracellular domain expressed with a N-terminal nonahistidine tag (human, UniProt P21757 77-451); test: competition ELISA, plate-coated His9-hMSR1; 100 nM antibody, competitor ligand Ac-LDL
T1 construct: extracellular domain; also called His9-hMSR1; His-hMSR1
T1 sequence: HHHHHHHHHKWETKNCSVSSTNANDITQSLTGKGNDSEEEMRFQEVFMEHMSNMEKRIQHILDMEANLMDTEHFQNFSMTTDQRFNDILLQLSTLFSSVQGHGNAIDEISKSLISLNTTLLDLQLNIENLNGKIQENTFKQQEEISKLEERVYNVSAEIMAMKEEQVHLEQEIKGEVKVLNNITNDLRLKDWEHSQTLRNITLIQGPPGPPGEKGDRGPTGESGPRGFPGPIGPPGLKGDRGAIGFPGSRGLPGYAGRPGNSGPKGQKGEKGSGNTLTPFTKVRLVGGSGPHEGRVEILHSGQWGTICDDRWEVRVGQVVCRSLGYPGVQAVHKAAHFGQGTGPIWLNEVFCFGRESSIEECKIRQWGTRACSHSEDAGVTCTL
Experimental: (§1) Buffer alone was also added to wells on each coat. […] This assay was conducted in four different assay runs.
(§2) Data analysis was performed using a sigmoidal dose-response model within Prism™ software (GraphPad).

[2] = biological target: T1, human MSR1 extracellular domain …; test: competition ELISA, plate-coated His9-hMSR1; 300 nM antibody, competitor ligand biot-AGE-BSA
Experimental: as §1, §2

[3] = biological target: T1, human MSR1 extracellular domain …; test: competition ELISA, plate-coated His9-hMSR1; 1 µM antibody, competitor ligand 10 nM Ox-LDL
Experimental: as §1, §2

% Blocking [1] [%]	% Blocking [2] [%]	% Blocking [3] [%]	Binder
-61	-9	-60	H1H27732P-N297Q (antibody, V domains shown, Human IgG1 Fc with N297Q) VH: QLQLQESGPGLVKPSETLSLTCTVSGGSISSSTYYWGWIRQPPGKGLEWIGSFYYSGSTYYNPSLKSRVTISVGTSKNQFSLKLSSVTAADTAVYFCARGGLLGRPFVIWGQGTMVTVSS VL: DIQMTQSPSSLSASVGDRVTITCRASQGIRNDLGWYQQKPGKAPKRLIYAASSLQSGVPSRFSGSGSGTEFTLTISSLQPEDFATYYCLQHNSYPLTFGGGTKVEIKR
-31	-3	3	H1H27736P-N297Q (antibody, V domains shown, Human IgG1 Fc with N297Q) VH: EVQLVESGGGLVQPGGSLRLSCAASGFTFSSYAMSWVRQAPGKGLEWVSSISGSGDSTFYTDSVKGRFTISRDISKNTLYLQMNSLRAEDTAVYYCAKDRLLWFGDLISPFHYWGQGTLVTVSS VL: EIVLTQSPGTLSLSPGERATLSCRASQSVSNIYLAWYQQKPAQAPRLLIYGASSRATGIPDRFSVSGSGTDFTLTISRLEPEDFAVYYCQQYGSSPRTFGQGTKVEIKR
-44	-2	-31	H1H27747P-N297Q (antibody, V domains shown, Human IgG1 Fc with N297Q) VH: QVQLVESGGAVVQPGRSLRLSCAASGFTFSYYGMHWVRQAPGKGLEWVAVISYDGSKKYYADSVKGRFTISRDNSKNTLYLQMNSLRAEDTAVYYCAKDLTVDFYYGMDVWGQGTTVTVSS VL: DIQMTQSPSSVSASVGDRVTITCRASQGISSWLAWYQQKPGKAPKLLIYATSSLQSGAPSRFSGSGSGTDFTLTISSLQPEDFATYFCQQANSFPYTFGQGTKLEIKR
-51	-11	-31	H1H27751P-N297Q (antibody, V domains shown, Human IgG1 Fc with N297Q) VH: EVQLVESGGGLVQPGGSLRLSCAASGFTFSNYAMHWVRQAPGKGLEYVSAISSNGGSTYYADSVKGRITISRDNSKNTLYLQMGSLRAEDMAVYYCARGRPYYYYFGMDVWGQGTTVTVSS VL: not shown
-42	-9	-44	H1H27754P-N297Q (antibody, V domains shown, Human IgG1 Fc with N297Q) VH: EVQLVESGGGLVQPGGSLRLSCAASGFTFRTYAMTWVRQAPGKGLDWVSAITGDGGNTYYADSVKGRFTISRDNSKNTLYLQMNSLRAEDTAIYYCAKDQRFSFALYYFDYWGQGTLVTVSS VL: DIQMTQSPSSVSASVGDRVTITCRASQGISSWLAWYQQKPGNAPKLLIYAAFSLQSGVPSRFSGSGSGTDFTLTISSLQPEDFATYYCQQANNFPWTFGQGTKVEIKR

The remaining lines, values behind:

Binder	% Blocking [1] [%]	% Blocking [2] [%]	% Blocking [3] [%]
H1H27734P-N297Q (antibody, V domains shown, Human IgG1 Fc with N297Q) VH: EVQLVESRGGLVQPGGSLRLSCAASGFTFSSYAMSWVRQAPGKGLEWVSAISGSGGSTFYADSVKGRFTISRDNSKNTVYLQMNSLRAEDTAVYYCAKALVLRFLEWLGDYWGQGTLVTVSS VL: DIQMTQSPSTLSASVGDRVTITCRASQSISSWLAWFQQKPGKAPKLLIYKASSLESGVPSRFSGSGSGTEFTLTISSLQPDDFATYYCQQYKSYWTFGQGTKVEIKR	-38	-4	-15
H1H27739P-N297Q (antibody, V domains shown, Human IgG1 Fc with N297Q) VH: EVQLVESGGGLVQPGGSLRLSCTASGFTFSSYAMSWVRQAPGKGLEWVSAISGTGSSTYFTDSVKGRFAISRDNSKNTLYLQMNSLRAEDTAVYYCAKDGEWLSTVTLFDYWGQGTLVTVSS VL: EIVMTQSPATLSVSPGERATLSCRASQSVSSNLAWYQQKPGQAPRLLIYGASTRATGIPARFSGSGSGTDFTLTISSLQSEDFALYYCQQYFIWPPHPTFGPGTKVDIKR	-47	-9	-41
H1H27749P-N297Q (antibody, V domains shown, Human IgG1 Fc with N297Q) VH: QVQLQESGPGLVKPSETLSLTCTVSDGSISSYYWSWIRQPPGRGLEWIGFIYYSGSTSYNPSLKSRVTISVDTSMSQFSLKLRSVTAADTAVYYCARGSPFDYWGPGTLVTVSS VL: EIVLTQSPGTLSLSPGERATLSCRASQSVSSSYLAWYQQRPGQAPSLLISGASRRATGIPDRFSGSGSGTDFTLTIRRLEPEDFAMYYCQQYGSSPPTFGGGTKVEIKR	-51	-1	-21
